Laboratory results reported in patent publication US20250136696A1 (HARBOUR BIOMED SHANGHAI, published 2025).

T1: human B7-H7 on the cell surface (human, UniProt Q9UM44 23-414)
T1 construct: whole, on cells; also called hB7-H7; hu B7-H7
T1 sequence (looked up): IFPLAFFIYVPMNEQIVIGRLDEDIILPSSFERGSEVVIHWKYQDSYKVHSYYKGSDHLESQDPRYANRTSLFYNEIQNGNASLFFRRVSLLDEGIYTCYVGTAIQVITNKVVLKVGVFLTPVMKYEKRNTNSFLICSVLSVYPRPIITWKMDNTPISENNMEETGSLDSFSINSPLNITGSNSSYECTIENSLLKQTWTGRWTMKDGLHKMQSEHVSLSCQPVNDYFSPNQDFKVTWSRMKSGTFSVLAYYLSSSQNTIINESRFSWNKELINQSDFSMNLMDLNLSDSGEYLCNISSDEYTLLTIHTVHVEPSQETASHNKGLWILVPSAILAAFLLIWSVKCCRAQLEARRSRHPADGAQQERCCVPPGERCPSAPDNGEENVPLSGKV

T2: biotinylated human B7-H7 protein (Acro Biosystems, B77-H82F5) (human, UniProt Q9UM44 23-344, biotinylated)
T2 construct: Bought soluble protein; also called biotin-B7H7 protein
T2 sequence (looked up): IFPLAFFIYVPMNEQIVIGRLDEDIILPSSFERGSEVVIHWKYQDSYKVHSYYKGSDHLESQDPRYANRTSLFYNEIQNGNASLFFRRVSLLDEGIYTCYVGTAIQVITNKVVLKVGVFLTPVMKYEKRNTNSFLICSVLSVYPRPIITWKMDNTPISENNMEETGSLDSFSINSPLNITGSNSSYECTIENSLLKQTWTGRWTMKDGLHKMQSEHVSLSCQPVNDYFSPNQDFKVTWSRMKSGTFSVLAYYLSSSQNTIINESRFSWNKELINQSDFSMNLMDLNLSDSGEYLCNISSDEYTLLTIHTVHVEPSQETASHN

T3: human B7-H7 recombinant protein (human, UniProt Q9UM44 23-344)
T3 construct: also called human B7-H7 protein
T3 sequence (looked up): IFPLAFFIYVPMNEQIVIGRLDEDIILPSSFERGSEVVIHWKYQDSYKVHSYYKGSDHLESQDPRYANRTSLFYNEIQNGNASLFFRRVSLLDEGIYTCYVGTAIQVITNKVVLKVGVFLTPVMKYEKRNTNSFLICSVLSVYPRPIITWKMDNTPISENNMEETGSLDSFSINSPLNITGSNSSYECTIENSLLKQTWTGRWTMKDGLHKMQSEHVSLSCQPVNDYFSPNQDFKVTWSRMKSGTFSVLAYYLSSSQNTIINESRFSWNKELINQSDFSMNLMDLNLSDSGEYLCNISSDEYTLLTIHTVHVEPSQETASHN


Tests used:
[1] = target: T1, human B7-H7 on the cell surface; assay: flow cytometry, HEK-293/hu B7-H7 cells
Protocol: (§1) This example was intended to study the in vitro activity of H2L2 monoclonal antibodies against human B7-H7 in binding to human/cynomolgus monkey B7-H7. Since homologous molecules of B7-H7 were not present in mice, the detection was not performed. […] The cells were adjusted to a cell density of 1×10⁶ cells/mL, respectively. The cells were seeded in a 96-well V-bottom plate (Corning, #3894) at 100 μL/well, and the antibody to be tested at 2× final concentration with 3-fold concentration gradient dilution was then added at 100 μL/well. The cells were incubated at 4° C. for 2 hours in the dark. After the incubation, the cells were rinsed twice by adding pre-chilled PBS containing 2% BSA at 100 μl/well, and centrifuged at 500 g at 4° C. for 5 minutes, and the supernatant was discarded. […] The cells were washed twice by adding pre-chilled PBS containing 2% BSA at 100 μL/well, and centrifuged at 500 g at 4° C. for 5 minutes, and the supernatant was discarded. Finally, the cells were resuspended in pre-chilled PBS containing 2% BSA at 200 μL/well, and the fluorescence signal values were read using an ACEA Novocyte3000 flow cytometer.

[2] = target: T4, cynomolgus monkey B7-H7 on the cell surface (cynomolgus monkey); assay: flow cytometry, HEK-293/cyno B7-H7 cells
T4 construct: whole, on cells; also called cyno B7-H7
Protocol: as §1

[3] = target: T2, biotinylated human B7-H7 protein (Acro …); assay: flow cytometry, blocking of biotinylated human B7-H7 binding to HEK-293/CD28H cells
Protocol: This example was intended to study the in vitro blocking activity of human anti-B7-H7 antibodies against the binding of human B7-H7 to its receptor CD28H. […] The cells were adjusted to a cell density of 1×10⁶ cells/mL. […] The cells were incubated at 4° C. for 1 hour in the dark. […] The cells were rinsed twice by adding pre-chilled PBS containing 2% BSA at 100 μL/well, and were centrifuged at 500 g at 4° C. for 5 minutes, and the supernatant was discarded. A fluorescent secondary antibody (PE Streptavidin, BD, Cat #: 554061, 1:200) was added at 100 μL/well, and the cells were incubated at 4° C. for 30 minutes in the dark. The cells were washed twice by adding pre-chilled PBS at 200 μL/well, and centrifuged at 500 g at 4° C. for 5 minutes, and the supernatant was discarded. Finally, the cells were resuspended in pre-chilled PBS at 200 μL/well, and the fluorescence signal values were read using an ACEA Novocyte3000 flow cytometer. IC50 was calculated.

[4] = target: T3, human B7-H7 recombinant protein; assay: BLI (Octet), antibody captured on AHC sensor, human B7-H7 in solution, 1:1 global fit
Protocol: The binding kinetics between antigen and antibody was analyzed using an Octet Red 96e (Fortebio) molecular interaction analyzer by biolayer interferometry (BLI) technology.
For determining the affinity of antibodies for antigens, the rotary speed of the sensor was set at 1000 rpm. AHC sensors (Fortebio, #18-5060) placed in one column were first equilibrated in a test buffer for 10 minutes, and then used to capture the anti-B7-H7 antibodies at a capture height of 0.7 nm; and after being equilibrated in the buffer for 120 s, the AHC sensors bound to human B7-H7 (concentrations: 50-3.125 nM and 0 nM) with 2-fold gradient dilution for 180 s and dissociated for 300 s. The AHC sensors were finally regenerated by immersing in a 10 mM glycine-hydrochloric acid solution with pH 1.5 to elute the protein bound to the sensors.
For data analysis using Octet Data Analysis software (Fortebio, version 11.0), 0 nM well was used as the reference well, reference subtraction was performed, “1:1 Global fitting” method was selected for data fitting, the kinetic parameters of the binding of the antigen to the antigen-binding protein were calculated, and the kₒₙ (1/Ms) value, kdis (1/s) value and KD (M) value were obtained.

Row | Binder | EC50 [1] [nM] | Maximum MFI [1] [MFI] | EC50 [2] [nM] | Maximum MFI [2] [MFI] | IC50 [3] [nM] | Maximum inhibition rate (%) [3] [%] | Kd [4] [nM] | koff [4] [s⁻¹] | kon [4] [M⁻¹ s⁻¹]
1 | PR003254 (antibody, human IgG1, kappa, V domains shown, Human IgG1; also called 59D6D2) VH: QVQLVESGGGVVQPGRSLRLSCAASGFTFSSYGMHWVRQAPGKGLEWVADIWYNGNNKYYADSVKGRFTISRDNSKNTLYLQMNSLRAEDTALYYCARDGGYSYGPFDYWGQGTLVTVSS VL: not shown | 1.95 | 762000 | 1.24 | 389000 | 1.59 | 27.4 | 32.3 | 0.00245 | 75600
2 | PR003262 (antibody, human IgG1, kappa, V domains shown, Human IgG1; also called 77D5A4) VH: QVQLVESGGGVVQPGRSLRLSCAASGFTFSRYGIHWVRQAPGKGLEWVAVIWYNGRNKYYVDSVKGRFTISRDNSKNTLYLQMNSLRAEDTAVYYCARDGGYSYGPFDYWGQGTLVTVSS VL: EIVMTQSPATLSVSPGERATLSCRASQSFSNNLAWYQQKPGQAPRLLIYGASTRATGIPARFSGSGSGTEFTLTISSLQSEDFAVYYCHQYNIWPLTFGGGTKVEIKR | 1.33 | 822000 | 0.59 | 419000 | 3.37 | 26.4 | 1.55 | 0.000117 | 75500
3 | PR003260 (antibody, human IgG1, kappa, V domains shown, Human IgG1; also called 70F3B1) VH: QVQLVESGGGVVQPGRSLRLPCAASGFTFSRYGMHWVRQAPGKGLEWVADIWYDGSKKYYADSVKGRFTISRDNSKNTLYLQMNSLRAEDTAVYFCTRDGGYSYGPFDYWGQGTLVTVSS VL: EIVMTQSPATLSVSPGERATLSCRASQSVSSNLAWYQQKPGQAPRLLIYYASTRAPGIPARFSGSESGTEFTLTISSLQSEDFAVYYCQQYNIWPYTFGQGTKLEIKR | 1.13 | 807000 | 0.588 | 447000 | 2.47 | 20.4 | 1.68 | 0.000102 | 61100
4 | PR003264 (antibody, human IgG1, kappa, Human IgG1; also called 77G10D3) heavy: not shown light: DIQLTQSPSFLSASVGDRVTITCRASQGISSYFAWYQQKPGKAPKLLIYAASTLQSGVPSRFSGSGSGTEFTLTISSLQPEDFATYYCQHLNRYPWTFGQGTKVEIKRTVAAPSVFIFPPSDEQLKSGTASVVCLLNNFYPREAKVQWKVDNALQSGNSQESVTEQDSKDSTYSLSSTLTLSKADYEKHKVYACEVTHQGLSSPVTKSFNRGEC | 1.68 | 756000 | 0.829 | 290000 | 1.52 | 101 | 2.94 | 0.000115 | 39000

These reach a lower EC50 [1]. Values come first.

Row | EC50 [1] [nM] | Maximum MFI [1] [MFI] | EC50 [2] [nM] | Maximum MFI [2] [MFI] | IC50 [3] [nM] | Maximum inhibition rate (%) [3] [%] | Kd [4] [nM] | koff [4] [s⁻¹] | kon [4] [M⁻¹ s⁻¹] | Binder
5 | 1.07 | 813000 | 0.522 | 430000 | 1.24 | 16.2 | 6.7 | 0.000632 | 94300 | PR003251 (antibody, human IgG1, kappa, V domains shown, Human IgG1; also called 29F2C8) VH: QVQLVESGGGVVQPGRSLRLSCAVSGFTFSRYGMHWVRQAPGKGLDWVAVIWYNGNNKYYTDSVKGRFTISRDNSKNTLFLQMNSLRAEDTAVYYCARDGAYSYGPFDYWGQGTLVTVSS VL: not shown
6 | 1.06 | 763000 | 0.556 | 410000 | 1.7 | 59.3 | 5.44 | 0.000441 | 81100 | PR003263 (antibody, human IgG1, kappa, V domains shown, Human IgG1; also called 77E6C4) VH: QVQLVESGGGVVQPGRSLRLSCAASGFTFSYYGLNWVRQAPGKGLEWVAVIWFDGTNKYYADSVKGRFTISRDDSKNTLYLQMNSLRAEDTAVYYCARGYGSGSYYNYVMDAWGQGASVTVSS VL: EIVMTQSPATLSVSPGERATLSCRASQSVSSNLAWYQQKPGQAPRLLIYGASTGATGIPARFSGSGSGTDFTLTISSLQSEDFAVYYCQQYYKWPLTFGGGTKVEIKR
